# Assay results as given in the DeepSol protein solubility set.
# Test: soluble on expression in E. coli; label from the status in PepcDB or PDB records
row,Sequence,soluble on expression in E. coli
1,MGSDKIHHHHHHMIELERVCKDYHTRQGMRRVLNRIDLRVKQGEKVGILGRNGAGKSTLIRMISGAELPTEGRIRRSMNVSWPLAFGGAFQGSLTGMDNLRFICRVYGADPKAAEPFVQEFSELGYYLREPVKSYSAGMRARLAFAISMAIEFDCFLIDEIVAVGDSRFHAKCHHELFEQRKDRALIIVSHDASYIRQHCDRASVLIEGKLHSFDSVEDAYTFYQESTA,not soluble
2,MGSDKIHHHHHHMANYPGIDTELLRTFVAIADHGGFTRAGEVVNRTQSAVSMQMKRLEEDVVQRQLFQREGRTLNLTAEGQVLLGYARRILKLHSEVFNTLREPHMVGVVKIGSPDDYVMRFLPGILSQFAQAYPLVQVEVHCEPSDLLLQRQDLDLTIVTRKPGTEIGTLLRHERLVWMEAIGFAPHEQKPMPLAMFNTHCFCRDWACNALDSVEREYRIAYTSSSMAAITAVVSAGLAVTAQFQSLATPELRILGDAEHLPHLPTASIVLLRNPKTPSPITECMADYIIDGFKP,not soluble
3,MGSDKIHHHHHHMSSIYGADLRTVGERIKGERKRLGLSQTAFANLAGVGKTTQINYEKGTRNPDTEYLAALDSAGVDVYYVLTGRKSSGGSSDVQAPVEEPLDGYSPVPMYDIEAAAGAGRLIEHENIESTLYFQTQALSAEGLDPAHLIGAKVRGDSMGSTLQDGDRVIVDCSQRTPDGVFLLRVGEEYRIKRVQRVAGGAWLLISDNHAYEKEMIKPDEMQDVEILGRCRVRIGRVS,not soluble
4,GMKTIDLADIQAFLYRESRLLDDKAWDAWLDCYRADAVFWMPSWDDADALVTDPQREISLIYYPNRQGLEDRVFRIKTERSSATVPDTRTSHNIANVERESADGDVHTVRFNWHTLSYRYKTVSSYFGMSRYAIDFSGDAPKIVSKYVVLKNDYINQLIDIYHI,soluble
5,MGSDKIHHHHHHMPTILEHLAALFDKDMRAVLSNPRAISMIANPSARVQMAAVRRDRSVICFIEKPTEKVQLTAVRNAPHNIHFITSPSERVQLTVIGIRPSYVGFIPNPTEKVQLKAVEKRPECIFLLQKPAEKVQLTAVLKDPRYLSAIREPTEKVQLAAVQKNPECIRHIAEPTEKVQHMAVQRSPDIFRQIRQPEESVRLAAVQAKGENIRYVSAPSEAVQLAAVRNDPMNIRYIENPTEKVQSVVLNADRDAAPFISSPTEEIKRLAMEMYGLRLENAAGKEAAAARTSETSGNSGKKATEGVAKKPSAKQVKEAVEKLDSEIREINREYFQATYEAQYSDNAAERESEISAAGKNREKKLVKAYEKFNSAAVPERKECNVGKIVKELRKERVAVENMKAGEWHSLMKGKAVQPPLVSGASGAAGKGSALMLARTPAGYALKAAGTINQASRQANAEM,not soluble
6,MNSEHPMTDRVVYRSLMADNLRWDALQLRDGDIIISAPSKSGLTWTQRLVSLLVFDGPDLPGPLSTVSPWLDQTIRPIEEVVATLDAQQHRRFIKTHTPLDGLVLDDRVSYICVGRDPRDAAVSMLYQSANMNEDRMRILHEAVVPFHERIAPPFAELGHARSPTEEFRDWMEGPNQPPPGIGFTHLKGIGTLANILHQLGTVWVRRHLPNVALFHYADYQADLAGELLRPARVLGIAATRDRARDLAQYATLDAMRSRASEIAPNTTDGIWHSDERFFRRGGSGDWQQFFTEAEHLRYYHRINQLAPPDLLAWAHEGRRGYDPAN,soluble
7,MFDDLHEYLDFLARKNDLITVNDQVDPDLELTYILSEEERIGRGRTIQFNRVKGSEVPAVGNLFSTYEKMKTVLGDDPYQIGRRIVEIAQPPGDSESFIGKGIEMMRELGGLRPKIAGSLPSNYDELDRVDLFRYPICKTWPQDGGKFITLPLVITKDPETGTRNMGMYRMQVYDSETTGMHWHIHKGGSENFQKEAQKHEVMDVAVVIGSDPLTIFSAVAPLPNGIDEFMFRGLVSKKRFDLVKGKTVNLEYPRNFEIVLEGYIDPAETRIEGPFGDHTGYYSLEEQFPVFHIKKIIERRDRIYPTTIVGKLWHEDVIMGKTIERMFLPLIQMVMPEVVDINTMEEAVFHNMVIVSIKKRYPGHAKKVMFGLWGMGQMMFSKIIVVVDDDINVHNRKEVIWAMTTRIDPDRDVIIIPGTVTDSLDHASPIFNYGSKMGIDATKKRPDEGYQRRWPDVLEMPEDVTNRVRDLMKKNGMTQLEHHHHHH,not soluble
8,MKKIAIFAKVHDPRCQGVASELIAWLEARGLIPLVEAHLARHLGGRQGIVPEDIPVLADMAVVLGGDGTLISAARLIGSRQIPILGVNLGSLGFLTEITLDELYPVLESCLSGDFQVTERMMLTVSVERNGEEICSHRVLNDVVINKGALARIIDMETEVSGIRLTTYKADGLIISTPTGSTGYSLSANGPIVHPSLECITITPICPHTLTNRPIVLESSSGVTVWLRSKDEDVYLTLDGQVGMELKCGDAVHVRRAAHRTRLVMSRSRNYFEVLRTKLKWGERAAALEHHHHHH,soluble
9,MMKTRGFELITDYTDENLLPKRETAHAAGYDLKVAERTEISAGAIVLVPTGVKAYMQVGEVLYLFDRSSNPRKKGLVLINSVGVIDGDYYNNPNNEGHIFAQMKNMTDQTVVLEAGERVVQGVFMPFLLIDGDKATGTRTGGFGSTGG,soluble
10,MYELYTLLAEYYDTIYRRRIERVKAEIDFVEEIFKEDAKREVRRVLDLACGTGIPTLELAERGYEVVGLDLHEEMLRVARRKAKERNLKIEFLQGDVLEIAFKNEFDAVTMFFSTIMYFDEEDLRKLFSKVAEALKPGGVFITDFPCWFYGGRDGPVVWNEQKGEEKLVIMDWREVEPAVQKLRFKRLVQILRPNGEVKAFLVDDELNIYTPREVRLLAEKYFEKVKIYGNLKRELSPNDMRYWIVGIAKSF,soluble
11,GSHMASRTPKKLSNIALTKETRQSSTDYNGFSRLAVDGNKNGDYGHHSVTHTKEDSPSWWEIDLAQTEELEKLIIYNRTDAEIQRLSNFDIIIYDSNDYEVFTQHIDSLESNNLSIDLKGLKGKKVRISLRSAGIPLSLAEVEVYTYK,soluble
12,MVSKRTKESIRNLNIFKGLELCIHISESVSYRVSKNRTVIFIISIGYKGVTVSKGPTYQERFTFTTQKFNAKSCLNHFLYVINPTKIDDLHFSIITGTFDDPKIQMAVECLKGLRVVNLNTPILSNTKTLAELVKTFEPTEHLKIHRYPFQTLGFAQLFQLREILPGKFPILSLNINMPLNGLLLTSSSSVGVNNNRLLTSKDFNIFLKHWIAGLKPELECIRILDYRLDWNEHTVLKGIPYEVAPMETKIKFRRKEELQLGGFDFTMSSGVKATLHFHYWDRVPITEISVVLHDSEIITFL,not soluble
13,MTENLTVQPERLGVLASHHDNAAVDASSGVEAAAGLGESVAITHGPYCSQFNDTLNVYLTAHNALGSSLHTAGVDLAKSLRIAAKIYSEADEAWRKAIDGLFT,soluble
14,MTTNKDHFMAKIQLVAQANLPTEYGIFKMVGFEFPDTKKEHVALVMGDISNADEPVLARIHSECLTGDALHSLKCDCGFQLATALKQIQEEGRGVLIYHREEGRGIGLINKIRAYSLQDKGMDTIEANLALGFKADERNFEVCADMFELLGVKKVRLMTNNPEKVETMKKAGINVVERVPLNVGENRYNTKYLDTKAKKMGHYIVHNNDEQHLMTCPHCQEEIILEHHHHHH,soluble
15,MAFDGLFTRAITHEIANSLYTGRISKIYQPSKYEILLHIRANGKNQKLILSAHPTYARLHLTNQNYDSPALPPMFCMLLRKHLEGGFIEKIEQIDLERIIQITVRSRNEIGDESLKTLVIEIMGRHSNIILVDTKTNNILDSLKHVSLAVNRHRTVYAGAEYIAPPVQHKINPLQIETNDEFIRPLDFLSGNMDKQLVGTFTGISPLFAKEVVKKAGMVNEKALADAFFSIQKPLLTHTYSPTMTTSNGKEFFYLFPLAHLAGENKTFSSVSELLDRFFFGKAERDRVKQQAHDLERFMQNEKNKNEKKLIKLEKTLQDAGKADKYQLFGELLTANMYALKKGDKDIEVVNYYDENGGTVKIALDPLKTPSENAQRYFQKYQKAKNSIVVVEEQIEKTKEEILYFDSLLQQMEAASSKDIEEIREELAEEGYMRNRKTKNAKKKPTKPVLDKYVASDGTEIFVGKNNKQNDYLTTKFARRDEIWLHTKDIPGSHVVIRSLEPAEETLLEAAKIAAYYSKAKESSSVPVDFTKIRHVKKPSGAKLGFVTYDNQQTVYVTPDADTVMKLKA,not soluble
16,MKEENVGDFTLHYGVFEEVEPEELRNLADMLRQRTKKDVVFIASRKGDKINFVIGVSKEISDKVNAKEVIREVGKVLKGGGGGRADLAQGGGKAPDKFPEAVKLLKEILSG,soluble
17,MNGGSSIKVLGLVGSPKVDGNTAKMVDAILEGAAENGAETVIYNLASLDIKGCDACHRCQETGCCAIDDDMQELYRQIEEADAVVLGSPVYMWQMTAQTKLLIDRMTAFLKPNFSSRLDHKKLILVFTQGIPDRDAFNSYFEYTAGVLYYLGFDVLETIVAAGTDNLEVAFRPRLLEKSRELGKLISASNPVSPRYRRALEHHHHHH,not soluble
18,MRWKRTLQLLDVHCEGEIGRVVTGGAPKIPGNTVAEQLHWMNTDPQGEALRRFLTLEPRGTPMGSVDLLLPPKHPDAHAAFVILQPDQAHASSGSNSICATTALLESGMVEMQEPETVIILETAAGLVKATATCRDGRCEKVKLTMVPSFVHELDVSIDTPEWGRVTMDISYGGIFYALVDVRQIGLTIEKANAAKLVAAGMTLKDLVNREMTVVHPEIPAISGVAYVMFRDVDADGSIRTCTTMWPGRADRSPCGTGNSANLATLYARGKVKVGDEYKSRSIIGSEFDVGLSAVTEVAGRPAVIPTIAGRGFTFGLHQVGLDPFDPLGDGFAMTDVWGPEAGNI,not soluble
19,DIGCYTLGALPPFREQDSATNMGSSLGISNGVFRSTDQVPVAVIGDSTFFHSGIEGVANAVYNNTAEIIVVLDNRSTAMTGQQPSPSTAIDIGNVCRAMGIEYVETFDPFDVDAGEKAVQQAAEYVKKTLKPAVIIAKRACALEVLEKVDSETPKAYVDSNRCT,not soluble
20,MSLDIKTLKGFKDYLPKDSLIRIHIVRQIFSVLNSYNFDLIDTPVLEYSDLLLKKSGDETEKQIYRFKDNGGRDVSMRFDLTVPFARFVATNISALKLPFRRSQFGKVFRGENSQKGRYREFMQFDFDIVGEDTFRGDAEILSVVYYGLEEIFLNFIEGINKKFIIHYSHIGILNSFFEKLGLKEKSIFILRNIDKIDKIGIDKVKEALLLEIEKEAVDSILSLVSLQGTFKDKIQALKSILGDNESIKRVEDVFQHLSLLKIQDSFNLNLKISRGLDYYTGIVFESEVFGSNMGSVCSGGRYDNLVSSFSNSIQKISGVGGSFGVDRIKDIIDLEKFSYIKIFVTKARSKVLIVNLDSALQNYYYELATRFRNHDYSKVKNISCEVYFKNKNGKNIKEQIEYALSKEIRFLVFVGQEEYKENKMKVRDLTKKEELLLSFEESINLIKCNEKLEGHHHHHH,soluble
21,MDYSKIIKEVGRGKNHARDLDQPTAYALYKAMLAGQVPALELGGILIAFRIKGESEQEILGFYQAMQEQVMSLRAPVDRPLPVVIPSYNGARKQANLTPLLALLLSRLGLPVVVHGVTEDSSRVTSAEIFQQLNIPWSLSVQEAQQRLDNGLPVFIPVSALSMQLDQQLQQRWRMGVRNSSHTLAKLATPFTHDKALRVASVSHPEYMQKVGGFFQAISAPGLLLQGTEGEVYANPLRCPPIHYINDGEQTILLDRSSESVVPELPLSKDAVITARWIEGCLAGEQPIPDSILKQLACCLVAAGQADSVELALQQIKIV,not soluble
